Source: patent publication US20200225234A1 (ONCOTAG DIAGNOSTICS, published 2020)

Columns and labels:
[1] = molecular target: T1, His-KRS (UniProt Q15046 1-597); test: ELISA, coated His-KRS, absorbance at 450 nm
T1 construct: not shown: His tag
Protocol: (§1) On a 96-well plate (Corning 3690 flat bottom, 96-well half-area plates), MRS proteins (His-MRS, MRS full) and other ARS proteins (DX2 tag free, 34S-DX2, 34S-AIMP2, His-CRS, His-AIMP1, His-GRS, His-WRS, His-KRS) were each coated at a concentration of 1 μg/ml. 8A12 antibody was added at a concentration of 500 ng/ml to the 96-well plate coated with coated with each of the ARS proteins, followed by incubation for 1 hour. Thereafter, HRP-conjugated anti-mouse IgG secondary antibody was added, followed by incubation for 1 hour, and the absorbance at 450 nm was measured by ELISA. As a substrate, 3,3′,5,5′-tetramethylbenzidine (TMB) was used.

[2] = molecular target: T2, His-GRS (UniProt P41250 55-739); test: ELISA, coated His-GRS, absorbance at 450 nm
T2 construct: not shown: His tag
T2 sequence (looked up): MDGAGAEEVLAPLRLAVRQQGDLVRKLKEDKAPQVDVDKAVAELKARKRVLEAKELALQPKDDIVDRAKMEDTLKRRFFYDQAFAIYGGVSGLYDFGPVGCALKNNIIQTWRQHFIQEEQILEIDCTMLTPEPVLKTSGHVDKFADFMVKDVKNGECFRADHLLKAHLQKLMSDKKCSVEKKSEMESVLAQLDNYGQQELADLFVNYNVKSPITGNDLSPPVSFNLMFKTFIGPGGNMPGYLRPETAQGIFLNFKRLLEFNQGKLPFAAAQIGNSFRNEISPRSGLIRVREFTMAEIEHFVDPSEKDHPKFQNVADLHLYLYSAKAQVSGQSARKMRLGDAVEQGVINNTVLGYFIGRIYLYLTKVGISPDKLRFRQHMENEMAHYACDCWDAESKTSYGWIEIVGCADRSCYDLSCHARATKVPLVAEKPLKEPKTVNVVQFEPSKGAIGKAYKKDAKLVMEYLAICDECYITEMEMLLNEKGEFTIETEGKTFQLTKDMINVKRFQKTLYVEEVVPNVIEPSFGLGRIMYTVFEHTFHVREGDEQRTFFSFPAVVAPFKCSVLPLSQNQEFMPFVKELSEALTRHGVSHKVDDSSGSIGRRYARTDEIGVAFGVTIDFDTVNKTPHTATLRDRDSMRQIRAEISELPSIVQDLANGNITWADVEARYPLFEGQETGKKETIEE
Protocol: as §1

[3] = molecular target: T3, aminoacyl-tRNA synthetase complex-interacting multifunctional protein 3 (AIMP3) (Homo sapiens (Human), UniProt O43324 1-174, limits assumed); test: SPR, AIMP3 protein on a CM5 chip, 8A12 antibody as analyte at 0.20 to 200 nM
T3 construct: The construct of the AIMP3-alone protein is not described; also called AIMP3 protein
T3 sequence: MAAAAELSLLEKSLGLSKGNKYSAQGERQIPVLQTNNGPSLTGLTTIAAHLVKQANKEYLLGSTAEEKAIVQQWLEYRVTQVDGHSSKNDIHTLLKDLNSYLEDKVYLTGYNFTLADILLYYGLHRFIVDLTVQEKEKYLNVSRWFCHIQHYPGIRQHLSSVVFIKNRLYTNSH
Protocol: (§2) To investigate MRS-specific affinity of the 8A12 antibody, a surface plasmon resonance (SPR) test was performed using MRS-AIMP3 co-purified protein (hereinafter, MRS+AIMP3 protein) and AIMP3 protein. MRS+AIMP3 or AIMP3 protein was coated on a CM5 chip and the 8A12 antibody was allowed to flow down, thereby measuring the degree of binding response of the protein. An analyte sample or buffer was injected at a flow rate of 30 μl/min for 8 minutes, and washed for 20 minutes.

[4] = molecular target: T4, MRS-AIMP3 co-purified protein (human, UniProt P56192 1-900; O43324 1-174, limits assumed); test: SPR, MRS+AIMP3 protein coated on CM5 chip, antibody as analyte; MRS+AIMP3 co-purified protein on the CM5 chip, 8A12 antibody as analyte
T4 construct: Complex of MRS and AIMP3, co-expressed in E. coli BL21DE3 and co-purified; also called MRS+AIMP3 protein
T4 sequence 1: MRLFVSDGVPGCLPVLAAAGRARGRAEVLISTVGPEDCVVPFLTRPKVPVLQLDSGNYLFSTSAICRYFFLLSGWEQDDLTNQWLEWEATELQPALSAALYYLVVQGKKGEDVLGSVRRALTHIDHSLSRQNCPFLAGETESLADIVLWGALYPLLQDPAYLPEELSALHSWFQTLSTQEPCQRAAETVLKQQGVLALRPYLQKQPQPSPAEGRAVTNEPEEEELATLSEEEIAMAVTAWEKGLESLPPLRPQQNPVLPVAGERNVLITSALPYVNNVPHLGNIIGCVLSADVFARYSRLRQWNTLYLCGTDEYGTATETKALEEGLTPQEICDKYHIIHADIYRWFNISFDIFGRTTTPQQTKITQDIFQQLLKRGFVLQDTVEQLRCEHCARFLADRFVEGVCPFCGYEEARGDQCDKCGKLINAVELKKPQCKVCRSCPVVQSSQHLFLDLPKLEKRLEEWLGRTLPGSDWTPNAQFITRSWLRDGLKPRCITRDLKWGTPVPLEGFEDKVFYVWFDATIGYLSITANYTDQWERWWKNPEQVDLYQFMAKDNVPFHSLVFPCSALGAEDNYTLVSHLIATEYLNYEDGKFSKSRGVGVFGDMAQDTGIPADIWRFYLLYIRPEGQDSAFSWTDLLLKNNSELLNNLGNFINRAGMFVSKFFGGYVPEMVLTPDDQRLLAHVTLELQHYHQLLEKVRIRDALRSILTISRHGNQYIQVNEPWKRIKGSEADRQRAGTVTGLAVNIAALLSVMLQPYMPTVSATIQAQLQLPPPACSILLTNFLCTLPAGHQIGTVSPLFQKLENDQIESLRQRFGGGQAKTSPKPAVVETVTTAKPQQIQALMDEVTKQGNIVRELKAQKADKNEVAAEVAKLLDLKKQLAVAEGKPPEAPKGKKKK
T4 sequence 2: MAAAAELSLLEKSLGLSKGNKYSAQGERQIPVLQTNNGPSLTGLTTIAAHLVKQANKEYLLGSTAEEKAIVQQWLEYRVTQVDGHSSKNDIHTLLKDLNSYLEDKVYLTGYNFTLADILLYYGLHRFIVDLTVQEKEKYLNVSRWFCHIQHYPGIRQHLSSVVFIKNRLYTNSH
Protocol: as §2

[5] = molecular target: T5, His-WRS (UniProt P23381 1-471, limits assumed); test: ELISA, coated His-WRS, absorbance at 450 nm
T5 construct: not shown: His tag
T5 sequence (looked up): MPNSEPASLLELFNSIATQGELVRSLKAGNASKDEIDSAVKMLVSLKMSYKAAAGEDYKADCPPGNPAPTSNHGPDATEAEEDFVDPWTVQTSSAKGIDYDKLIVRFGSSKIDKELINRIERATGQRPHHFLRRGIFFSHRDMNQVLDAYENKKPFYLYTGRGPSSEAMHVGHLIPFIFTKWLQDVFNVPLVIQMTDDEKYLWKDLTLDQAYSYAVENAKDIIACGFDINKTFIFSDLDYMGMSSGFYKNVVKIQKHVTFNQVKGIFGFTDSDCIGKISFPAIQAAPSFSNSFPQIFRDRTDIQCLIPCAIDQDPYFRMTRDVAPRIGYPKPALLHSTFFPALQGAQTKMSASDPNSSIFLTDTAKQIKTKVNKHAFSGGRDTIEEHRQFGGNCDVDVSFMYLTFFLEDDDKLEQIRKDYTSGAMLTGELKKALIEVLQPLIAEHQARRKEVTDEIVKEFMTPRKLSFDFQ
Protocol: as §1

[6] = molecular target: T6, MRS fragment peptide of aa 851-880 (human); test: ELISA, peptide coated at 300 ng/well, antibody at 10 nM
T6 peptide: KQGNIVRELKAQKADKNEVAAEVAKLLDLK
Protocol: The 8A12 antibody as a primary antibody was diluted to 10 nM (1× PBST-Tween 0.05%), and HRP-conjugated Goat anti-mouse IgG (Thermo) as a secondary antibody was diluted at 1:10000 (1×PBST-Tween0.05%), and the absorbance was measured at 450 nm.

[7] = molecular target: T7, His-CRS (UniProt P49589 1-748); test: ELISA, coated His-CRS, absorbance at 450 nm
T7 construct: not shown: His tag
T7 sequence (looked up): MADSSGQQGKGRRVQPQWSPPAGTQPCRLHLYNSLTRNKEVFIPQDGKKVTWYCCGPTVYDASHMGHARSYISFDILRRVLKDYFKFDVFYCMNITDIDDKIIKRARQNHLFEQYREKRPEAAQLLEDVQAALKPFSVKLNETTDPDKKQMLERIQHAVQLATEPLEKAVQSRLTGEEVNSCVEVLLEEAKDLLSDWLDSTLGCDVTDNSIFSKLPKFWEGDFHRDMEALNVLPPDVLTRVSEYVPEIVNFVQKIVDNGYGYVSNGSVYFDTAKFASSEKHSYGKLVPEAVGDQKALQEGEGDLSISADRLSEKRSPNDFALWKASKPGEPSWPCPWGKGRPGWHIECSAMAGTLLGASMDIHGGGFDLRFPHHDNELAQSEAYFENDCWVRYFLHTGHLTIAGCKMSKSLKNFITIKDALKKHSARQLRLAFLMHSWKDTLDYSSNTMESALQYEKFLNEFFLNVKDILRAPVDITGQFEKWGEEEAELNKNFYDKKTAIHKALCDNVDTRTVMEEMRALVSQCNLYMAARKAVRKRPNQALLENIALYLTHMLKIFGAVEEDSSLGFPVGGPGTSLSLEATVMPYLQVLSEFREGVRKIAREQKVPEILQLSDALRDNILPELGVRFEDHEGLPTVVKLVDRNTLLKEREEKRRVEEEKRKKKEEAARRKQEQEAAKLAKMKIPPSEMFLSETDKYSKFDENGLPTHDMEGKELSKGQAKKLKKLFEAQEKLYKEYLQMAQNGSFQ
Protocol: as §1

[8] = molecular target: T8, His-AIMP1 (UniProt Q12904 1-312, limits assumed); test: ELISA, coated His-AIMP1, absorbance at 450 nm
T8 construct: not shown: His tag
T8 sequence (looked up): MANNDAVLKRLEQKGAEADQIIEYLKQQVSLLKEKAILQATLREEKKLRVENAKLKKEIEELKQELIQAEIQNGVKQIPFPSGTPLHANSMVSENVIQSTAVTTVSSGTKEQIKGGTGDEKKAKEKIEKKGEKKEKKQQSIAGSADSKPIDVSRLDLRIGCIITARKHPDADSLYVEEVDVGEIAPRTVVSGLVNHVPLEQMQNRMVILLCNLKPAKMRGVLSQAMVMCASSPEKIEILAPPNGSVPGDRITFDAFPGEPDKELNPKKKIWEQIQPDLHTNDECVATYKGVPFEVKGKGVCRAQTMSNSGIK
Protocol: as §1

[9] = molecular target: T9, 34S-AIMP2 (UniProt Q13155 1-320); test: ELISA, coated 34S-AIMP2, absorbance at 450 nm
T9 construct: The meaning of 34S is unknown
T9 sequence (looked up): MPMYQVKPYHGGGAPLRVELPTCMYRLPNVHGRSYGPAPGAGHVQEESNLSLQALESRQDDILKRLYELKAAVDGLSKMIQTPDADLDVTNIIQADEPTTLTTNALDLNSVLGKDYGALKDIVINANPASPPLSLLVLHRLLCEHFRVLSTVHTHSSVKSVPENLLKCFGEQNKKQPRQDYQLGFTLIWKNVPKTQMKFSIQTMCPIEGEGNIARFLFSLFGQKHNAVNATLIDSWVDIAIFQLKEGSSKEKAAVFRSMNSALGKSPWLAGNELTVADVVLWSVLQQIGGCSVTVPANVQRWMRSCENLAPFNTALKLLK
Protocol: as §1

[10] = molecular target: T4, MRS-AIMP3 co-purified protein; test: SPR, MRS+AIMP3 protein on a CM5 chip, 8A12 antibody as analyte at 0.39 to 200 nM
Protocol: as §2

T1 sequence (Q15046 whole entry): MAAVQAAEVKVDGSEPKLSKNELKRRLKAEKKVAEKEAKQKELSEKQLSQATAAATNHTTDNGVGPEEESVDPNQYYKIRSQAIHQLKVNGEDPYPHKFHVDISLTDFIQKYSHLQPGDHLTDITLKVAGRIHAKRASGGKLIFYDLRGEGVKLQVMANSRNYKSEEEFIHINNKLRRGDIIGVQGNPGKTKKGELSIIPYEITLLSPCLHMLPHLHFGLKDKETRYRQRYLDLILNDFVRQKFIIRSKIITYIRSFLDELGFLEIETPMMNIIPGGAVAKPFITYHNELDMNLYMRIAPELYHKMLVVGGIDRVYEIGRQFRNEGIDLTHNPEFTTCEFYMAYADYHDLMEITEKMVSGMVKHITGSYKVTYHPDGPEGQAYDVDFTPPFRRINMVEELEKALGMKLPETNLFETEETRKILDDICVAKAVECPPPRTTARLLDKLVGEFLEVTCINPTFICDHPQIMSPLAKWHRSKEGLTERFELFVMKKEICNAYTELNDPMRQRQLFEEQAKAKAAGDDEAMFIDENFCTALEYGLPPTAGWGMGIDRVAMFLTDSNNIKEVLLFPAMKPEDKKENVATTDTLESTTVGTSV

binding result [1]: no binding
binding result [2]: no binding
binding result [3]: no binding (tested: 200 nM)
Kd [4]: 1.56 nM
binding result [5]: no binding
binding result [6]: binds
binding result [7]: no binding
binding result [8]: no binding
binding result [9]: no binding
koff [10]: 0.000213 s⁻¹
kon [10]: 137000 M⁻¹ s⁻¹
B1: 8A12 antibody (whole 8A12 IgG antibody) (antibody, V domains shown)
VH: DVKLQESGPGLVKPSQSLSLTCTVTGYSITSEYAWTWIRQFPGNKLEWMGYINYNGNTNLNPSLKSRISIIRDTSKNQFFLQLNSVTTEDTATYYCARSLWPRGWFAYWGQGTLVTVSA
VL: DIQMTQSPSSMYASLGERVTITCKASQDINSYLSWFQQKPGKSPKTLMYRANRLVDGVPSRFSGSGSGQDYSLTISSLEYEDMGIYYCLQYDEFPRTFGGGTKLEIKA
notes: Mouse monoclonal antibody from hybridoma 8A12; It was also made recombinantly in 293F cells with mouse IgG2a heavy and mouse kappa light chain vectors; also called MRS antibody; 8A12 clone expression antibody
